From patent publication US20250163162A1 (SYNTHEKINE, published 2025)

Columns and labels:
Assay in all cases: cell-based or functional assay
IL10Rα/IL2Rγ receptor [1] = target: T1, IL10Rα/IL2Rγ receptor (human, UniProt Q13651 22-578; P31785 23-369)
T1 sequence (looked up) 1: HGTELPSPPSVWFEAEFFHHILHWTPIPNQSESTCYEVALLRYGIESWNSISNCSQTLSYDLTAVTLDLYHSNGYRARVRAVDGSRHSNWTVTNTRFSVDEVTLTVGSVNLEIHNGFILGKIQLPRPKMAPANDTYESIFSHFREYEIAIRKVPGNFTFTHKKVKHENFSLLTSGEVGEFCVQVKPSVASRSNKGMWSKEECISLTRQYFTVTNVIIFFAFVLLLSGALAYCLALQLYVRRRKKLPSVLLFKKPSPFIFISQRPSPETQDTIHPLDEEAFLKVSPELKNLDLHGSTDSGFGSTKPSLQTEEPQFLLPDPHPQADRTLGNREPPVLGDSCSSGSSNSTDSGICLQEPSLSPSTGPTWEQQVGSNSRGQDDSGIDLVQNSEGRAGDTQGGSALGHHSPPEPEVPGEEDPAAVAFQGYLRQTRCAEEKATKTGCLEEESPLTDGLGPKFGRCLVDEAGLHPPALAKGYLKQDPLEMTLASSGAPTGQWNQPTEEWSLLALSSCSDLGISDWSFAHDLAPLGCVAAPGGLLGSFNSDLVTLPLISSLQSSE
T1 sequence (looked up) 2: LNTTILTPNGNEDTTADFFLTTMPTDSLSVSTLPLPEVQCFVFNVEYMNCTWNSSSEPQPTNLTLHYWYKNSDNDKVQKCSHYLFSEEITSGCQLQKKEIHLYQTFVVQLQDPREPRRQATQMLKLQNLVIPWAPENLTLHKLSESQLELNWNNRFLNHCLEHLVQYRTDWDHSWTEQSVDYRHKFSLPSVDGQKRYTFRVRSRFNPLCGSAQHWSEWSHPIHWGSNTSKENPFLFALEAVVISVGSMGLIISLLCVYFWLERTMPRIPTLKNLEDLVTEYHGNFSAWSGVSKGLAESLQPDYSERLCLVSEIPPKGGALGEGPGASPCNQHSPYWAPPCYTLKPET

IL10Rα/IL2Rγ receptor [2] = target: T1, IL10Rα/IL2Rγ receptor; remark: listed apart in the source
IL10Rα/IL2Rγ receptor [3] = target: T1, IL10Rα/IL2Rγ receptor; remark: listed apart in the source
IL10Rα/IL2Rγ receptor [4] = target: T1, IL10Rα/IL2Rγ receptor; remark: listed apart in the source
IL10Rα/IL2Rγ receptor [5] = target: T1, IL10Rα/IL2Rγ receptor; remark: listed apart in the source
IL10Rα/IL2Rγ receptor [6] = target: T1, IL10Rα/IL2Rγ receptor; remark: listed apart in the source

pSTAT3 MFI, B cells, 100 nM (unstimulated 1045) (IL10Rα/IL2Rγ receptor [1]): 1030 MFI
pSTAT3 MFI, CD4+ T cells, 100 nM (unstimulated 1778) (IL10Rα/IL2Rγ receptor [1]): 3570 MFI
pSTAT3 MFI, CD8+ T cells, 100 nM (unstimulated 1288) (IL10Rα/IL2Rγ receptor [1]): 2700 MFI
pSTAT3 MFI, Monocytes, 100 nM (unstimulated 1787) (IL10Rα/IL2Rγ receptor [1]): 2020 MFI
pSTAT3 MFI, NK cells, 100 nM (unstimulated 1149) (IL10Rα/IL2Rγ receptor [1]): 1430 MFI
pSTAT3 MFI, B cells, 0.0001 nM (unstimulated 1193.5) (IL10Rα/IL2Rγ receptor [2]): 1130 MFI
pSTAT3 MFI, B cells, 0.001 nM (unstimulated 1193.5) (IL10Rα/IL2Rγ receptor [2]): 1130 MFI
pSTAT3 MFI, B cells, 0.01 nM (unstimulated 1193.5) (IL10Rα/IL2Rγ receptor [2]): 1140 MFI
pSTAT3 MFI, B cells, 0.1 nM (unstimulated 1193.5) (IL10Rα/IL2Rγ receptor [2]): 1150 MFI
pSTAT3 MFI, B cells, 1 nM (unstimulated 1193.5) (IL10Rα/IL2Rγ receptor [2]): 1260 MFI
pSTAT3 MFI, B cells, 10 nM (unstimulated 1193.5) (IL10Rα/IL2Rγ receptor [2]): 1340 MFI
pSTAT3 MFI, B cells, 100 nM (unstimulated 1193.5) (IL10Rα/IL2Rγ receptor [2]): 1360 MFI
pSTAT3 MFI, CD4 T cells, 0.0001 nM (unstimulated 1887) (IL10Rα/IL2Rγ receptor [3]): 1800 MFI
pSTAT3 MFI, CD4 T cells, 0.001 nM (unstimulated 1887) (IL10Rα/IL2Rγ receptor [3]): 1870 MFI
pSTAT3 MFI, CD4 T cells, 0.01 nM (unstimulated 1887) (IL10Rα/IL2Rγ receptor [3]): 1890 MFI
pSTAT3 MFI, CD4 T cells, 0.1 nM (unstimulated 1887) (IL10Rα/IL2Rγ receptor [3]): 2450 MFI
pSTAT3 MFI, CD4 T cells, 1 nM (unstimulated 1887) (IL10Rα/IL2Rγ receptor [3]): 4570 MFI
pSTAT3 MFI, CD4 T cells, 10 nM (unstimulated 1887) (IL10Rα/IL2Rγ receptor [3]): 5180 MFI
pSTAT3 MFI, CD4 T cells, 100 nM (unstimulated 1887) (IL10Rα/IL2Rγ receptor [3]): 4670 MFI
pSTAT3 MFI, NK cells, 0.0001 nM (unstimulated 1315) (IL10Rα/IL2Rγ receptor [4]): 1260 MFI
pSTAT3 MFI, NK cells, 0.001 nM (unstimulated 1315) (IL10Rα/IL2Rγ receptor [4]): 1270 MFI
pSTAT3 MFI, NK cells, 0.01 nM (unstimulated 1315) (IL10Rα/IL2Rγ receptor [4]): 1260 MFI
pSTAT3 MFI, NK cells, 0.1 nM (unstimulated 1315) (IL10Rα/IL2Rγ receptor [4]): 1310 MFI
pSTAT3 MFI, NK cells, 1 nM (unstimulated 1315) (IL10Rα/IL2Rγ receptor [4]): 1640 MFI
pSTAT3 MFI, NK cells, 10 nM (unstimulated 1315) (IL10Rα/IL2Rγ receptor [4]): 1800 MFI
pSTAT3 MFI, NK cells, 100 nM (unstimulated 1315) (IL10Rα/IL2Rγ receptor [4]): 1760 MFI
pSTAT3 MFI, CD8 T cells, 0.0001 nM (unstimulated 1446) (IL10Rα/IL2Rγ receptor [5]): 1380 MFI
pSTAT3 MFI, CD8 T cells, 0.001 nM (unstimulated 1446) (IL10Rα/IL2Rγ receptor [5]): 1420 MFI
pSTAT3 MFI, CD8 T cells, 0.01 nM (unstimulated 1446) (IL10Rα/IL2Rγ receptor [5]): 1400 MFI
pSTAT3 MFI, CD8 T cells, 0.1 nM (unstimulated 1446) (IL10Rα/IL2Rγ receptor [5]): 1800 MFI
pSTAT3 MFI, CD8 T cells, 1 nM (unstimulated 1446) (IL10Rα/IL2Rγ receptor [5]): 3320 MFI
pSTAT3 MFI, CD8 T cells, 10 nM (unstimulated 1446) (IL10Rα/IL2Rγ receptor [5]): 3880 MFI
pSTAT3 MFI, CD8 T cells, 100 nM (unstimulated 1446) (IL10Rα/IL2Rγ receptor [5]): 3450 MFI
pSTAT3 MFI, Monocytes, 0.0001 nM (unstimulated 2116) (IL10Rα/IL2Rγ receptor [6]): 2060 MFI
pSTAT3 MFI, Monocytes, 0.001 nM (unstimulated 2116) (IL10Rα/IL2Rγ receptor [6]): 2060 MFI
pSTAT3 MFI, Monocytes, 0.01 nM (unstimulated 2116) (IL10Rα/IL2Rγ receptor [6]): 2020 MFI
pSTAT3 MFI, Monocytes, 0.1 nM (unstimulated 2116) (IL10Rα/IL2Rγ receptor [6]): 2020 MFI
pSTAT3 MFI, Monocytes, 1 nM (unstimulated 2116) (IL10Rα/IL2Rγ receptor [6]): 2210 MFI
pSTAT3 MFI, Monocytes, 10 nM (unstimulated 2116) (IL10Rα/IL2Rγ receptor [6]): 2340 MFI
pSTAT3 MFI, Monocytes, 100 nM (unstimulated 2116) (IL10Rα/IL2Rγ receptor [6]): 2440 MFI
B1: DR395(DR229-DR239) (bispecific antibody)
chain: QVQLQESGGGLVQPGGSLRLSCTASGFSFSSYPMTWARQAPGKGLEWVSTIASDGGSTAYAASVEGRFTISRDNAKSTLYLQLNSLKTEDTAMYYCTKGYGDGTPAPGQGTQVTVSSGGGSQVQLQESGGGSVQAGGSLRLSCTVSGYTYSSNCMGWFRQAPGKEREGVATIYTGGGNTYYADSVKGRFTISQDNAKNTVYLQMNNLKPEDTAMYYCAAEPLSRVYGGSCPTPTFDYWGQGTQVTVSSASHHHHHH
